# Source: US20160160255A1, “Methods and Materials for Producing 6-Carbon Monomers” (INVISTA North America S.á.r.l., priority 2014, published 2016)
# B1: SEQ ID NO 14: Clostridium aminobutyricum CoA-transferase, GenBank Accession No. CAB60036.2, with β-ketothiolase activity, N-terminal His-tagged (protein, listed as Clostridium aminobutyricum)
# chain: MDWKKIYEDRTCTADEAVKSIKSGDRVLFAHCVAEPPVLVEAMVANAAAYKNVTVSHMVTLGKGEYSKPEYKENFTFEGWFTSPSTRGSIAEGHGQFVPVFFHEVPSLIRKDIFHVDVFMVMVSPPDHNGFCCVGVSSDYTMQAIKSAKIVLAEVNDQVPVVYGDTFVHVSEIDKFVETSHPLPEIGLPKIGEVEAAIGKHCASLIEDGSTLQLGIGAIPDAVLSQLKDKKHLGIHSEMISDGVVDLYEAGVIDCSQKSIDKGKMAITFLMGTKRLYDFAANNPKVELKPVDYINHPSVVAQCSKMVCINACLQVDFMGQIVSDSIGTKQFSGVGGQVDFVRGASMSIDGKGKAIIAMPSVAKKKDGSMISKIVPFIDHGAAVTTSRNDADYVVTEYGIAEMKGKSLQDRARALINIAHPDFKDELKAEFEKRFNAAF
# modifications: N-terminal His tag
# Test: β-ketothiolase activity, 4-hydroxybutyryl-CoA and acetyl-CoA to 3-oxo-6-hydroxyhexanoyl-CoA
# Format: biochemical
# Settings: 5 μM enzyme and ChnC lactonase, 10 mM γ-butyrolactone, 5 mM acetyl-CoA, pH 6.8, 30° C., 3 hour
# Protocol: A nucleotide sequence encoding a N-terminal His-tag was added to the gene from Clostridium aminobutyricum encoding the β-ketothiolase activity of SEQ ID NO: 14 (see FIG. 6) such that a N-terminal HIS tagged enzyme could be produced. The resulting modified gene was cloned into a pET15b expression vector under control of the T7 promoter and the expression vector was transformed into a BL21[DE3] E. coli host. The resulting recombinant E. coli strain was cultivated at 37° C. in a 1 L shake flask culture containing 350 mL LB media and ampicillin antibiotic selection pressure, with shaking at 230 rpm. Each culture was induced overnight at 25° C. using 1 mM IPTG.
# The pellet from each induced shake flask culture was harvested via centrifugation. Each pellet was resuspended and lysed via sonication. The cell debris was separated from the supernatant via centrifugation. The enzyme was purified from the supernatant using Ni-affinity chromatography, buffer exchanged and concentrated into 50 mM potassium phosphate buffer (pH=6.8) via ultrafiltration.
# Enzyme activity assays converting 4-hydroxybutyryl-CoA and acetyl-CoA to 3-oxo-6-hydroxyhexanoyl-CoA were performed in triplicate in a buffer composed of a final concentration of 50 mM potassium phosphate buffer (pH=6.8), 75 μM ZnCl2, 10 mM γ-butyrolactone and 5 mM acetyl-CoA. […] The formation of 3-oxo-6-hydroxyhexanoyl-CoA was determined via LC-MS.
molecule,measurement,value
B1,"acceptance of 4-hydroxybutyryl-CoA and acetyl-CoA as substrates, formation of 3-oxo-6-hydroxyhexanoyl-CoA (LC-MS)",accepted 4-hydroxybutyryl-CoA and acetyl-CoA as substrates
